From patent publication US20190351049A1 (Regeneron, published 2019) come the findings set out here.

Numbering of substitutions follows the chain as printed.

The chains are these.
B1: H1H15211P (antibody, V domains shown)
VH: EVQLVESGGGLVQPGGSLRLSCVVSGFTFSNYDMSWVRQAPGRGLEWVSAIRGSGFNTYYADSVKGRFTISRDNSKNTLYLQMNSLRAEDTAVYYCAKDGSIVSMDYWGQGTLVTVSS
VL: not shown
B2: H2bM15292N (antibody, V domains shown)
VH: QVQLVQSGAEVKKPGSSVKVSCKASGGTFNNYAISWVRQAPGQGLEWMGGIIPFFGTTNYAQKFQDRVTITSDDSTITAYMELSRLRSEDTAVYYCARDEPRRDGYNYYHYYYMDVWGQGTTVTVSS
VL: DIQMTQSPSSLSASVGDRVTITCRASQSINSYLNWYQQKPGKAPNLLIYAASSLQSGVPSRFSGSGSGTDFTLTISSLHPEDFATYYCQQSYSTPPITFGQGTRLEIK
B3: H2aM15287N (antibody, V domains shown)
VH: QLQLQESGPGLVKPSETLSLTCTVSGGSISSGNYYWGWIRQPPGKGLEWFGTIYYSGSTYYNPSLKSRVTISVDTSKNQFSLKLSSVTAADTAVYYCARRAAVGHFDYWGQGTLVTVSS
VL: DIQMTQSPSTLSASVGDRVTITCRASQSISTWLAWYQQKPGKAPKLLIYEASSLESGVPSRFSGSGFGTEFTLTISRLQPDDFATYFCQQYNTYWTFGQGTKVEIK
B4: H2aM15271N (antibody, V domains shown)
VH: EVQLVESGGALVQPGGSLRLSCAASGFIFGSYEMNWVRQAPGKGLEWLSYISSSGSTIYYADSVKGRFTISRDNAKNSLYLQMNSLRAEDTAVYYCARERGQLGRGGYYYYGMDVWGQGTTVTVSS
VL: EIVLTRSPGTLSLSPGERATLSCRASQSVSSSYLAWYHQKPGQAPRLLMYGTSIRATGIPDRFSGSGSGTDFTLTISRLEPEDFAVYYCQQYGSSPPWTFGQGTKVEIK
B5: H1M15280N (antibody, V domains shown)
VH: EVQLLESGGGLVQPGGSLRLSCAASGFTFSSYAMSWVRQAPGKGLEWVSAISGSGSSTYYADSVKGRFTISRDNSKNTLFLQMNSLRAEDTAVYYCAEGGDVDFDYWGQGTLVTVSS
VL: not shown
B6: H2aM15278N (antibody, V domains shown)
VH: QVQLVQSGAEVKKPGASVKVSCKASGYTFTSHGISWVRQAPGQGFEWMGWIGTYNSNTDYAQNFQGRVTMTTDTSTSTAYMELRNLRSDDTAVYYCARERGPYYGMDVWGQGTTVTVSS
VL: EIVLAQSPGTLSLSPGERATLSCRASQSVNSNYLAWYQQKPGQAPRLLIYGASSRATGIPDRFSGSGSGTDFTLTISRLEPEDFAVYYCQQYGNSLTFGPGTKVDFK
B7: H1M15277N (antibody, V domains shown)
V domain 1: EVQLLESGGGLVQPGGSLRLSCAASGFTFSSYAMSWVRQAPGKGLEWVSAISGRGGNTYYADSVKGRFTISRDNSKNTLFLQMNTLRAEDTAVYYCAKDRGFGFFDIWGRGTLATVSS
V domain 2: not shown
B8: H1M15269N (antibody, V domains shown)
VH: EVQLLESGGGLVQPGGSLRLSCPASGFTFSNYAMTWVRQAPGKGLEWVSAISGSGATTKYADSVKGRFTISRDNSRNTLYLQMNSLRAEDTAVYYCAKGGSGSYFPYYYYGLDVWGQGTTVTVSS
VL: EIVMTQSPATLSVSPGDSATLSCRASQTVSSNLAWYQQKPGQAPRLLIYGASTRATGIPARFSGSGSGTEFTLTISSLQSEDFAVYYCQQYYNWWTFGQGTKVEIK
B9: H2aM15279N (antibody, V domains shown)
VH: EVQLLESGGGLVQTGGSLRLSCAASGFTFSNYAMSWVRQAPGKGLEWVSAISDRGGSIYYADSVKGRFTISRDNSKNTKYLQMDSLRAEDTAVYYCAQDRGFGVFDYWGQGTLVTVSS
VL: DIQMTQSPSSLSASVGDRVTITCQASQDIGNYLNWFQQRPGKAPNLLIYGASNLETGVPSRFSGGGSGTDFTFTISSLQPEDIATYFCQQYDNLPFTFGPGTKVEIK
B10: H2aM15281N (antibody, V domains shown)
VH: QVQLVQSGAEVKKPGSSVKVSCKASKDTFSSYAISWVRQAPGQGLEWMGGIIPFFGTTTYEQKFQGRVTITTDESTRTAYMELSSLRSEDSAVYYCARDRPCISSAGTRYHYCVMDVWGQGTTVTVSS
VL: not shown
B11: H2aM15272N (antibody, V domains shown)
VH: B10 VH with Q3R, K26G, G56V, E61A, K63N
VL: not shown
B12: H1M15293N (antibody, V domains shown)
VH: QVQLVQSGAEVKKPGSSVKVSCKVSGVTFSSYAISWVRQAPGQGLEWMGGIIPFFGTASYAQKFQGRVTVTTDESTSTAYMEVSSLRSEDTAVYYCARDNPELTKEGYYHYYAMDVWGQGTTVTVSS
VL: not shown
B13: H1M15290N (antibody, V domains shown)
VH: QVQLVQSGAEVKKPGSSVKVSCKASGGTFSTYAISWVRQAPGQGLEWMGGIIPFFGTANYAQKFQGRVTITTDESTSTAYMELSSLRSEDTAVYYCAREGTYYDSLTGYYTHYYRMDVWGQGTTVTVSS
VL: not shown
B14: H1M15289N (antibody, V domains shown)
VH: QVQLQESGPGLVKPSETLSLTCTVSGGSISSYYWSWIRQPPGKGLEWIGYIYYSGSANYNPSLKSRVTISVDTSKNQFSLKLSSVTAADTAVYYCVRDRDLLLDHWGQGTLVTVSS
VL: EIVMTQSPATLSVSPGKRATLSCRASQSVSSNLAWYQQKPGQAPRLLIYGASTRTTGFPARFSGSGSGTDFTLTISSLQSEDFAVYYCQQYNNWPYTFGQGTMLEIK
B15: H2aM15270N (antibody, V domains shown)
VH: EVQLLESGGGLEQPGGSLRLSCAASGFTFSSYAMIWVRQAPGKGLEWVSTISGSGVNTYYADSVKGRFTISRDNSKNTLHLQMNSLRAEDTAVYHCAKEGLDCANGVCYNYYGMDVWGQGTTVTVSS
VL: DIQMTQSPSSLSASVGDRVTITCRASQSINSFLNWYHQKPGKAPKFLIYSASNLQSGVPSRFSGSGSGTDFTLTISSLQPEDFSTYYCQQSYSIPLTFGGGTKVEIK
B16: H2bM15291N (antibody, V domains shown)
VH: QVQLVQSGAEVKKPGSSVKVSCKASGDTFSTYAVSWVRQAPGQGLEWMGGIIPFFGTSNYAQKFQGRVTITTDESTTTAYMELNSLRSEDTAVYYCAREITMVRGLTNYHFYGMDVWGQGTTVTVSS
VL: not shown
B17: H1M15267N (antibody, V domains shown)
VH: QVQLQESGPGLVKPSETLSLTCTVSGGSISSYYWSWIRQPPGKGLEWIGYIYYSGSPNYNPSLKSRVTISVDTSKNQFSLKLTSVTAADTAVYYCARSLNWGPPFDYWGQGTLVTVSS
VL: not shown

The first assay has as its target T1, MERS-CoV spike protein (EMC/2012), wt (MERS-CoV (isolate EMC/2012), UniProt K9N5Q8 18-1353). Nature of the assay: cell-based or functional assay.
On to B1, for which the “IC50 against MERSpp” value was determined as 0.0474 nM and the “IC50 against live virus (EMC2012)” value was found to be 0.369 nM.

The target of the next assay is T1, MERS-CoV spike protein (EMC/2012), wt. The experiment in a line: cell-based or functional assay. This is another data set of the same source.
In the case of B2, the “IC50 against MERSpp” value was 0.113 nM and the “IC50 against live virus (EMC2012)” value amounted to 2.26 nM.

For B3, the “IC50 against MERSpp” value was found to be 2.93 nM and the “IC50 against live virus (EMC2012)” value came out at 8.92 nM.

Consider B4, for which the “IC50 against MERSpp” value came out at 0.127 nM and the “IC50 against live virus (EMC2012)” value stood at 1.03 nM.

As for B5, the “IC50 against MERSpp” value was 0.111 nM and the “IC50 against live virus (EMC2012)” value amounted to 0.763 nM.

In the case of B6, the “IC50 against MERSpp” value was determined as 0.142 nM and the “IC50 against live virus (EMC2012)” value was 0.644 nM.

As to B7, the “IC50 against MERSpp” value came out at 0.0646 nM and the “IC50 against live virus (EMC2012)” value was found to be 0.287 nM.

As to B8, the “IC50 against MERSpp” value worked out at 0.688 nM and the “IC50 against live virus (EMC2012)” value was determined as 6.8 nM.

B9: the “IC50 against MERSpp” value was found to be 0.0939 nM and the “IC50 against live virus (EMC2012)” value turned out to be 0.825 nM.

In the case of B10, the “IC50 against MERSpp” value worked out at 0.0785 nM and the “IC50 against live virus (EMC2012)” value was 0.292 nM.

B11: the “IC50 against MERSpp” value worked out at 0.0723 nM and the “IC50 against live virus (EMC2012)” value worked out at 0.569 nM.

For the molecule B12, the “IC50 against MERSpp” value is 0.258 nM and the “IC50 against live virus (EMC2012)” value stood at 2.58 nM.

B13: the “IC50 against MERSpp” value turned out to be 0.21 nM and the “IC50 against live virus (EMC2012)” value is 2.55 nM.

As for B14, the “IC50 against MERSpp” value amounted to 0.281 nM and the “IC50 against live virus (EMC2012)” value is 3.15 nM.

In the case of B15, the “IC50 against MERSpp” value worked out at 0.102 nM and the “IC50 against live virus (EMC2012)” value amounted to 0.711 nM.

Turning to B16, the “IC50 against MERSpp” value was determined as 0.186 nM and the “IC50 against live virus (EMC2012)” value came out at 2.22 nM.

Take B17: the “IC50 against MERSpp” value came to 0.0998 nM and the “IC50 against live virus (EMC2012)” value was determined as 0.891 nM.

The target in a further assay is MERS-RBD-mFc (MERS-CoV (isolate EMC/2012), UniProt K9N5Q8 367-606). Nature of the assay: Octet BLI, MERS.mFc captured on the sensor, then mAb-1 applied.
In the case of B1, the “mAb-1 Binding (nm)” value was 0.76 nm.

For a further assay, the target named is T1, MERS-CoV spike protein (EMC/2012), wt. Nature of the assay: cell-based or functional assay. The source holds these as a separate data set.
With B2, the “% Neutralization (.025 µg/ml), MERSpp infectivity” value (“% Neutralization (.025 µg/ml)” for short) was 91% and the “Neutralization IC50 (M), MERSpp infectivity” value (“Neutralization IC50 (M)” for short) turned out to be 3.57e-10 M.

Regarding B3, the “% Neutralization (.025 µg/ml)” value was determined as 5% and the “Neutralization IC50 (M)” value turned out to be 3.59e-09 M.

Turning to B4, the “% Neutralization (.025 µg/ml)” value turned out to be 97% and the “Neutralization IC50 (M)” value was 2.74e-10 M.

For the molecule B5, the “% Neutralization (.025 µg/ml)” value turned out to be 97% and the “Neutralization IC50 (M)” value was found to be 1.76e-10 M.

Regarding B6, the “% Neutralization (.025 µg/ml)” value was 98% and the “Neutralization IC50 (M)” value was 2.11e-10 M.

Turning to B7, the “% Neutralization (.025 µg/ml)” value came out at 99% and the “Neutralization IC50 (M)” value came to 1.33e-10 M.

As to B8, the “% Neutralization (.025 µg/ml)” value was determined as 40% and the “Neutralization IC50 (M)” value worked out at 1.02e-09 M.

B9: the “% Neutralization (.025 µg/ml)” value is 97% and the “Neutralization IC50 (M)” value is 1.38e-10 M.

With B10, the “% Neutralization (.025 µg/ml)” value was 98% and the “Neutralization IC50 (M)” value was found to be 4.64e-10 M.

For B11, the “% Neutralization (.025 µg/ml)” value was found to be 97% and the “Neutralization IC50 (M)” value is 2.21e-10 M.

With B12, the “% Neutralization (.025 µg/ml)” value came out at 86% and the “Neutralization IC50 (M)” value worked out at 4.36e-10 M.

Consider B13, for which the “% Neutralization (.025 µg/ml)” value came to 83% and the “Neutralization IC50 (M)” value came to 5.84e-10 M.

Take B14: the “% Neutralization (.025 µg/ml)” value stood at 89% and the “Neutralization IC50 (M)” value came out at 4.25e-10 M.

In the case of B15, the “% Neutralization (.025 µg/ml)” value was determined as 98% and the “Neutralization IC50 (M)” value was found to be 3.25e-10 M.

On to B16, for which the “% Neutralization (.025 µg/ml)” value is 90% and the “Neutralization IC50 (M)” value came to 3.05e-10 M.

With B17, the “% Neutralization (.025 µg/ml)” value came out at 99% and the “Neutralization IC50 (M)” value is 1.49e-10 M.
